Experimental findings from US20040229826A1, “Dose-dense & sequential adjuvant cancer chemotherapy” (priority 2002, published 2004) are described below.

Description: Designed for outpatients, all chemotherapy (FIG. 1) was given intravenously, starting within 84 days from primary surgery. […]
Disease-free survival (DFS), which was the primary study endpoint, was measured from study entry until local recurrence, distant relapse or death without relapse, whichever occurred first. […] The secondary endpoint of overall survival (OS) was measured from study entry until death from any cause; surviving patients were censored at the date of last contact. […]

B1: filgrastim (protein, chains of the INN, looked up)
chain: MTPLGPASSLPQSFLLKCLEQVRKIQGDGAALQEKLCATYKLCHPEELVLLGHSLGIPWAPLSSCPSQALQLAGCLSQLHSGLFLYQGLLQALEGISPELGPTLDTLQLDVADFATTIWQQMEELGMAPALQPTQGAMPAFASAFQRRAGGVLVASHLQSFLEVSYRVLRHLAQP
For the molecule B1, for the setting “influence of filgrastim”, the incidence of leukemia entry is reported as “not influenced”. Further, the granulocyte toxicity result (use of filgrastim in the dose dense regimens) is recorded as “statistically significant decrease”.
